Experiment [1] relates to HCoV-OC43 gRNA and sgRNA. Format: binding. The following applies: for target (unweighted spectral count, OC43 Probe II capture) / target (unweighted spectral count): tested against no-probe control; for target (unweighted spectral count, OC43 Probe II capture): FDR<10%; for target (unweighted spectral count): OC43 Probe II, 24 hpi (type n_24_v), infected cells.
Experiment [2] deals with SARS-CoV-2 gRNA. Format: binding. The following applies: for target (unweighted spectral count of the protein in the RNP capture): LC-MS/MS, Probe I sample (first 199 lines of Table 2).

Read-outs that look alike come from different tables or passages of the source.

We go through six molecules from patent US20230407373A1 (priority 2020, published 2023).

B1: CON_P35908 (protein, UniProt P35908 1-639, looked up)
Keratin, type II cytoskeletal …: MSCQISCKSRGRGGGGGGFRGFSSGSAVVSGGSRRSTSSFSCLSRHGGGGGGFGGGGFGSRSLVGLGGTKSISISVAGGGGGFGAAGGFGGRGGGFGGGSSFGGGSGFSGGGFGGGGFGGGRFGGFGGPGGVGGLGGPGGFGPGGYPGGIHEVSVNQSLLQPLNVKVDPEIQNVKAQEREQIKTLNNKFASFIDKVRFLEQQNQVLQTKWELLQQMNVGTRPINLEPIFQGYIDSLKRYLDGLTAERTSQNSELNNMQDLVEDYKKKYEDEINKRTAAENDFVTLKKDVDNAYMIKVELQSKVDLLNQEIEFLKVLYDAEISQIHQSVTDTNVILSMDNSRNLDLDSIIAEVKAQYEEIAQRSKEEAEALYHSKYEELQVTVGRHGDSLKEIKIEISELNRVIQRLQGEIAHVKKQCKNVQDAIADAEQRGEHALKDARNKLNDLEEALQQAKEDLARLLRDYQELMNVKLALDVEIATYRKLLEGEECRMSGDLSSNVTVSVTSSTISSNVASKAAFGGSGGRGSSSGGGYSSGSSSYGSGGRQSGSRGGSGGGGSISGGGYGSGGGSGGRYGSGGGSKGGSISGGGYGSGGGKHSSGGGSRGGSSSGGGYGSGGGGSSSVKGSSGEAFGSSVTFSFR
In the case of B1, the “target (unweighted spectral count, OC43 Probe II capture)” value in experiment [1] (24 hpi, type n_24_v) came to 4. In addition, in experiment [2] ([…]), the “target (unweighted spectral count of the protein in the RNP capture)” value came out at 6.

B2: CKAP4: host protein, UniProt Q07065 (protein, UniProt Q07065 1-602, looked up)
Cytoskeleton-associated …: MPSAKQRGSKGGHGAASPSEKGAHPSGGADDVAKKPPPAPQQPPPPPAPHPQQHPQQHPQNQAHGKGGHRGGGGGGGKSSSSSSASAAAAAAAASSSASCSRRLGRALNFLFYLALVAAAAFSGWCVHHVLEEVQQVRRSHQDFSRQREELGQGLQGVEQKVQSLQATFGTFESILRSSQHKQDLTEKAVKQGESEVSRISEVLQKLQNEILKDLSDGIHVVKDARERDFTSLENTVEERLTELTKSINDNIAIFTEVQKRSQKEINDMKAKVASLEESEGNKQDLKALKEAVKEIQTSAKSREWDMEALRSTLQTMESDIYTEVRELVSLKQEQQAFKEAADTERLALQALTEKLLRSEESVSRLPEEIRRLEEELRQLKSDSHGPKEDGGFRHSEAFEALQQKSQGLDSRLQHVEDGVLSMQVASARQTESLESLLSKSQEHEQRLAALQGRLEGLGSSEADQDGLASTVRSLGETQLVLYGDVEELKRSVGELPSTVESLQKVQEQVHTLLSQDQAQAARLPPQDFLDRLSSLDNLKASVSQVEADLKMLRTAVDSLVAYSVKIETNENNLESAKGLLDDLRNDLDRLFVKVEKIHEKV
For B2, the “target (unweighted spectral count, OC43 Probe II capture)” value in experiment [1] (36 hpi, type n_36_v) worked out at 12. In addition, in experiment [1], the “target (unweighted spectral count)” value is reported as 8. In experiment [1] (type s_36_m, HCoV-OC43-infected HCT-8 cells, 36 hpi, Probe II), the “target (spectral count)” value is on record as 12. In experiment [1] (type s_36_m, uninfected-probe control, 36 hpi, Probe II), the “background (spectral count)” value is 1. In addition, in experiment [2] (Probe I capture, […], LC-MS/MS LFQ), the “target (unweighted spectral count in RNP capture)” value is 5. Besides, the “background (unweighted spectral count in control)” value in experiment [2] (no-probe control pull-down, used as background for Probe I) was 1.

B3: FAM1204 (protein, UniProt Q9NZB2 1-1118, looked up)
Constitutive coactivator of …: MGVQGFQDYIEKHCPSAVVPVELQKLARGSLVGGGRQRPPQTPLRLLVDADNCLHRLYGGFYTDWVSGGQWNHMLGYLAALAKACFGGNIELFVFFNGALEKARLHEWVKRQGNERQTAQQIVSHVQNKGTPPPKVWFLPPVCMAHCIRLALIRFHVKVAQSIEDHHQEVIGFCRENGFHGLVAYDSDYALCNIPYYFSAHALKLSRNGKSLTTSQYLMHEVAKQLDLNPNRFPIFAALLGNHILPDEDLASFHWSLLGPEHPLASLKVRAHQLVLPPCDVVIKAVADYVRNIQDTSDLDAIAKDVFQHSQSRTDDKVIRFKRAIGYYSATSKPMSFHPPHYLAARPGPFGMPGMVPPHVPPQMLNIPQTSLQAKPVAPQVPSPGGAPGQGPYPYSLSEPAPLTLDTSGKNLTEQNSYSNIPHEGKHTPLYERSSPINPAQSGSPNHVDSAYFPGSSTSSSSDNDEGSGGATNHISGNKIGWEKTGSHSEPQARGDPGDQTKAEGSSTASSGSQLAEGKGSQMGTVQPIPCLLSMPTRNHMDITTPPLPPVAPEVLRVAEHRHKKGLMYPYIFHVLTKGEIKIAVSIEDEANKDLPPAALLYRPVRQYVYGVLFSLAESRKKTERLAFRKNRLPPEFSPVIIKEWAAYKGKSPQTPELVEALAFREWTCPNLKRLWLGKAVEDKNRRMRAFLACMRSDTPAMLNPANVPTHLMVLCCVLRYMVQWPGARILRRQELDAFLAQALSPKLYEPDQLQELKIENLDPRGIQLSALFMSGVDMALFANDACGQPIPWEHCCPWMYFDGKLFQSKLLKASREKTPLIDLCDGQADQAAKVEKMRQSVLEGLSFSRQSHTLPFPPPPALPFYPASAYPRHFGPVPPSQGRGRGFAGVCGFGGPYGETVATGPYRAFRVAAASGHCGAFSGSDSSRTSKSQGGVQPIPSQGGKLEIAGTVVGHWAGSRRGRGGRGPFPLQVVSVGGPARGRPRGVISTPVIRTFGRGGRYYGRGYKNQAAIQGRPPYAASAEEVAKELKSKSGESKSSAMSSDGSLAENGVMAEEKPAPQMNGSTGDARAPSHSESALNNDSKTCNTNPHLNALSTDSACRREAALEAAVLNKEE
For B3, the “target (unweighted spectral count of the protein in the RNP capture)” value in experiment [2] ([…]) turned out to be 37.

B4: DDX3X (protein, UniProt O00571 2-662, looked up)
ATP-dependent RNA helicase …: SHVAVENALGLDQQFAGLDLNSSDNQSGGSTASKGRYIPPHLRNREATKGFYDKDSSGWSSSKDKDAYSSFGSRSDSRGKSSFFSDRGSGSRGRFDDRGRSDYDGIGSRGDRSGFGKFERGGNSRWCDKSDEDDWSKPLPPSERLEQELFSGGNTGINFEKYDDIPVEATGNNCPPHIESFSDVEMGEIIMGNIELTRYTRPTPVQKHAIPIIKEKRDLMACAQTGSGKTAAFLLPILSQIYSDGPGEALRAMKENGRYGRRKQYPISLVLAPTRELAVQIYEEARKFSYRSRVRPCVVYGGADIGQQIRDLERGCHLLVATPGRLVDMMERGKIGLDFCKYLVLDEADRMLDMGFEPQIRRIVEQDTMPPKGVRHTMMFSATFPKEIQMLARDFLDEYIFLAVGRVGSTSENITQKVVWVEESDKRSFLLDLLNATGKDSLTLVFVETKKGADSLEDFLYHEGYACTSIHGDRSQRDREEALHQFRSGKSPILVATAVAARGLDISNVKHVINFDLPSDIEEYVHRIGRTGRVGNLGLATSFFNERNINITKDLLDLLVEAKQEVPSWLENMAYEHHYKGSSRGRSKSSRFSGGFGARDYRQSSGASSSSFSSSRASSSRSGGGGHGSSRGFGGGGYGGFYNSDGYGGNYNSQGVDWWGN
Regarding B4, the “target (unweighted spectral count, OC43 Probe II capture)” value in experiment [1] (36 hpi, type n_36_v) worked out at 7. For the same molecule, the “target (unweighted spectral count)” value in experiment [1] is reported as 7. For the same molecule, in experiment [1] (type n_48_v, 48 hpi, OC43 Probe II capture on infected cells), the “target (unweighted spectral count, OC43 Probe II)” value is 11. Also, the “background (unweighted spectral count, no-probe control)” value in experiment [1] (type n_48_v, 48 hpi, no-probe control on infected cells) amounted to 2. For the same molecule, the “target (unweighted spectral count of the protein in the RNP capture)” value in experiment [2] ([…]) turned out to be 17.

B5: SRSF9 (protein, UniProt Q13242 1-221, looked up)
Serine/arginine-rich splicing …: MSGWADERGGEGDGRIYVGNLPTDVREKDLEDLFYKYGRIREIELKNRHGLVPFAFVRFEDPRDAEDAIYGRNGYDYGQCRLRVEFPRTYGGRGGWPRGGRNGPPTRRSDFRVLVSGLPPSGSWQDLKDHMREAGDVCYADVQKDGVGMVEYLRKEDMEYALRKLDDTKFRSHEGETSYIRVYPERSTSYGYSRSRSGSRGRDSPYQSRGSPHYFSPFRPY
For B5, in experiment [2] ([…]), the “target (unweighted spectral count of the protein in the RNP capture)” value is given as 6.

B6: MARS2 (protein, UniProt Q96GW9 30-593, looked up)
Methionine--tRNA ligase, …: SSGSLSAGDDACDVRAYFTTPIFYVNAAPHIGHLYSALLADALCRHRRLRGPSTAATRFSTGTDEHGLKIQQAAATAGLAPTELCDRVSEQFQQLFQEAGISCTDFIRTTEARHRVAVQHFWGVLKSRGLLYKGVYEGWYCASDECFLPEAKVTQQPGPSGDSFPVSLESGHPVSWTKEENYIFRLSQFRKPLQRWLRGNPQAITPEPFHHVVLQWLDEELPDLSVSRRSSHLHWGIPVPGDDSQTIYVWLDALVNYLTVIGYPNAEFKSWWPATSHIIGKDILKFHAIYWPAFLLGAGMSPPQRICVHSHWTVCGQKMSKSLGNVVDPRTCLNRYTVDGFRYFLLRQGVPNWDCDYYDEKVVKLLNSELADALGGLLNRCTAKRINPSETYPAFCTTCFPSEPGLVGPSVRAQAEDYALVSAVATLPKQVADHYDNFRIYKALEAVSSCVRQTNGFVQRHAPWKLNWESPVDAPWLGTVLHVALECLRVFGTLLQPVTPSLADKLLSRLGVSASERSLGELYFLPRFYGHPCPFEGRRLGPETGLLFPRLDQSRTWLVKAHRT
As to B6, in experiment [2] ([…]), the “target (unweighted spectral count of the protein in the RNP capture)” value was found to be 6.
